This is an account of results in publication PMC6821881, “Development of a Potent and Protective Germline-Like Antibody Lineage Against Zika Virus in a Convalescent Human” (Frontiers in Immunology, 2019).

The target of one experiment is T1, ZIKV E protein (GZ01) (Zika virus, isolate GZ01 (KU820898)).
T1 construct: also called full-length E; surface envelope glycoprotein (E); source: E. coli BL21 (RIL), pET28a, IPTG-induced; inclusion bodies solubilized and re-folded
Briefly: ELISA; E protein or E DIII protein captured separately onto ELISA plates overnight at 4°C; each mAb (full-length IgG) serially diluted and applied; detected with anti-human IgG-HRP and TMB; EC50 by dose-response stimulation model. Conditions: both partners purified. (An ELISA detects its analyte on a solid surface through an enzyme-linked reagent.)

In experiment [1] the target is T2, ZIKV E DIII protein (residues 301-403) (Zika virus, isolate GZ01 (KU820898)).
T2 construct: source: E. coli BL21 (RIL), pET28a, IPTG-induced; inclusion bodies solubilized and re-folded
The description is as above. The following applies: both partners purified.

B1: 2L-1 (S31N+A91S) (antibody, V domains shown)
VH: EVQLVQSGAEVKKPGASVKVSCKASGYTFTSGHTFPSYDINWVRQATGQGLEWMGWMNPNRGNTGYAQKFQGRVTMTRNTSINTAYMELSSLRSEDTAVYYCARVRSGTNYGSYYYYYYGMDVWGQGTTVTVSS
VL: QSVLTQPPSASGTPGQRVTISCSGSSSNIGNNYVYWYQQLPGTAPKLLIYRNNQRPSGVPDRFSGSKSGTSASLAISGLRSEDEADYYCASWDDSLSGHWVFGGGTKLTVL
notes: also called double mutation (S31N+A91S) into 2L-1; source: HEK 293T, transiently co-transfected, purified from supernatant (protein A agarose)
Take B1: the binding result (in the experiment with ZIKV E protein (GZ01); in experiment [1]) was “binds” each time.

B2: 2H-6 (antibody, V domains shown)
VH: EVQLVQSGAEVKKPGASVKVSCKASGYTFTSYDVNWVRQATGQGLEWMGWLNPNSGNTGYAEKFQGRVTMTRNTSISTAYMELSSLRSEDTAVYYCARVSSGSYYGSYYYYYYGMDVWGQGTTVTVSS
VL: SYELTQPPSASGTPGQRVTISCSGSSSNIGNNYVHWYQQLPGSAPKLLIYRNNQRPSGVPDRFSGSKSGTSGSLAISGLRSEDEADYYCASWDDSLSGHWVFGGGTKVTVL
notes: also called ZK2B10 heavy chain somatic variant 2H-6; source: HEK 293T, transiently co-transfected, purified from supernatant (protein A agarose)
As to B2, the binding result (in the experiment with ZIKV E protein (GZ01); in experiment [1]) was “binds” each time.

B3: 2H-9 (antibody, V domains shown)
VH: EVQLVQSGGKVVELGASVKVSCKASGYTFTTYDINWVRQATGQGLEWMGWMNPNSGNTGYAQKFQGRVTMTRNTSISTAYMELSSLRSEDTAVYYCARVSSGSYYGSYYYYYYGMDVWGQGTTVTVSS
VL: SYELTQPPSASGTPGQRVTISCSGSSSNIGNNYVHWYQQLPGSAPKLLIYRNNQRPSGVPDRFSGSKSGTSGSLAISGLRSEDEADYYCASWDDSLSGHWVFGGGTKVTVL
notes: also called ZK2B10 heavy chain somatic variant 2H-9; source: HEK 293T, transiently co-transfected, purified from supernatant (protein A agarose)
Turning to B3, the binding result (with ZIKV E protein (GZ01); in experiment [1]) was “binds” each time.

B4: ZK2B10 (antibody, V domains shown)
VH: EVQLVQSGAEVKKPGASVKVSCKASGYTFTSGHTFPSYDINWVRQATGQGLEWMGWMNPNRGNTGYAQKFQGRVTMTRNTSINTAYMELSSLRSEDTAVYYCARVRSGTNYGSYYYYYYGMDVWGQGTTVTVSS
VL: SYELTQPPSASGTPGQRVTISCSGSSSNIGNNYVHWYQQLPGSAPKLLIYRNNQRPSGVPDRFSGSKSGTSGSLAISGLRSEDEADYYCASWDDSLSGHWVFGGGTKVTVL
notes: also called WT ZK2B10; wild-type (WT) ZK2B10; source: HEK 293T, transiently co-transfected, purified from supernatant (protein A agarose)
As to B4, the binding result in experiment [1] was “binds”.

B5: 2H-15 (antibody, V domains shown)
VH: EVQLVQSGAEVKKPGASVKVSCKASGYTFTSYDVNWVRQATGQGLEWMGWMNPNSGNTGYAQKFQGRVTMTRNTSISTAYMELSSLRSEDTAVYYCARVSSGSYYGSYYYYYYGMDVWGQGTTVTVSS
VL: SYELTQPPSASGTPGQRVTISCSGSSSNIGNNYVHWYQQLPGSAPKLLIYRNNQRPSGVPDRFSGSKSGTSGSLAISGLRSEDEADYYCASWDDSLSGHWVFGGGTKVTVL
notes: also called ZK2B10 heavy chain somatic variant 2H-15; source: HEK 293T, transiently co-transfected, purified from supernatant (protein A agarose)
As to B5, the binding result (with ZIKV E protein (GZ01); in experiment [1]) was “binds” throughout.

B6: 2H-5 (antibody, V domains shown)
VH: QVQLVQSGAEVKKPGASVNVSCKASGYTFTMYDINWVRQTTGQGLEWMGWMNPNSGNTGYAQKFQGRVTMTRNTSISTAYMELSSLRSEDTAVYYCARVSSGSYYGSYYYYYYGMDVWGQGTTVTVSS
VL: SYELTQPPSASGTPGQRVTISCSGSSSNIGNNYVHWYQQLPGSAPKLLIYRNNQRPSGVPDRFSGSKSGTSGSLAISGLRSEDEADYYCASWDDSLSGHWVFGGGTKVTVL
notes: also called ZK2B10 heavy chain somatic variant 2H-5; source: HEK 293T, transiently co-transfected, purified from supernatant (protein A agarose)
In the case of B6, the binding result (in the experiment with ZIKV E protein (GZ01); in experiment [1]) was “binds” throughout.

B7: 2H-16 (antibody, V domains shown)
VH: QVQLVQSGAEVKKPGASVKVSCKASGYTFTSYDINWVRQATGQGLEWMGWMNPNSGNTGCAQKFQGRVTMTRNTSISTAYMELSSLRSEDTAVYYCARVSSGSYYGSYYYYYYGMDVWGQGTTVTVSS
VL: SYELTQPPSASGTPGQRVTISCSGSSSNIGNNYVHWYQQLPGSAPKLLIYRNNQRPSGVPDRFSGSKSGTSGSLAISGLRSEDEADYYCASWDDSLSGHWVFGGGTKVTVL
notes: also called ZK2B10 heavy chain somatic variant 2H-16; source: HEK 293T, transiently co-transfected, purified from supernatant (protein A agarose)
Take B7: the binding result (in the experiment with ZIKV E protein (GZ01); in experiment [1]) was “binds” each time.

B8: 2H-10 (antibody, V domains shown)
VH: QVQLVQSGVEVKKPGASVEVSCQASGITSTSYDINWVRQANGQGLEWMGWMNPNSGNTGYAQKFQGRVTMTRNTSISTAYMELSSLRSEDTAVYYCARVSSGSYYGSYYYYYYGMDVWGQGTTVTVSS
VL: SYELTQPPSASGTPGQRVTISCSGSSSNIGNNYVHWYQQLPGSAPKLLIYRNNQRPSGVPDRFSGSKSGTSGSLAISGLRSEDEADYYCASWDDSLSGHWVFGGGTKVTVL
notes: also called ZK2B10 heavy chain somatic variant 2H-10; source: HEK 293T, transiently co-transfected, purified from supernatant (protein A agarose)
On to B8, for which the binding result (in the experiment with ZIKV E protein (GZ01); in experiment [1]) was “binds” throughout.

B9: 2H-4 (antibody, V domains shown)
VH: QVQLVQSGREVKKPGASVKVSCKGSGYTFTSYDINWVRQAPGQGLEWMGWMNPNSGNTGYAQKFQGRVTMTRNTSISTAYMELSSLRSGDTAVYYCARVSSGSYYGSYYYYYYGMDVWGQGTTVTVSS
VL: SYELTQPPSASGTPGQRVTISCSGSSSNIGNNYVHWYQQLPGSAPKLLIYRNNQRPSGVPDRFSGSKSGTSGSLAISGLRSEDEADYYCASWDDSLSGHWVFGGGTKVTVL
notes: also called ZK2B10 heavy chain somatic variant 2H-4; source: HEK 293T, transiently co-transfected, purified from supernatant (protein A agarose)
Regarding B9, the binding result (with ZIKV E protein (GZ01); in experiment [1]) was “binds” in each case.
